Key:
[1] = molecular target: T1, Human glycopeptide (biotinylated) (biotinylated; glycosylated (glycan and sites not stated)); assay: SPR; avid; apparent KD, FIG. 19A
T1 peptide: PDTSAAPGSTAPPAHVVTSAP

[2] = molecular target: T2, Cynomolgus glycopeptide (biotinylated) (biotinylated; glycosylated (glycan and sites not stated)); assay: SPR; avid; apparent KD, FIG. 19B
T2 peptide: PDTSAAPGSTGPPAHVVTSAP

- Kd [1]: 253 nM
- Kd [2]: 56 nM
B1: monoclonal antibody GO2 (5F7) (antibody, V domains shown)
VH: QVQLQQSDAELVKPGASVKISCKASGYTFTDHAIHWVKQRPEQGLEWIGYFSPGNDDIHYNEKFEGKATLTADKSSSTAYMQLNSLTSEDSAVYFCKRSYDKDFDCWGQGTTLTVSS
VL: DIVMSQSPSSLGVSVGEKVTMSCKSSQSLLYSTNQKNYLAWYQQKPGQSPKLLIYWVSNRKSGVPDRFTGSGSGTDFTLTISSVKAEDLAVYYCQQYYRYPLTFGAGTKLELK

Source: patent US20220089772A1 (published 2022)
